Assay results published in publication PMC9256669, “Monomethyl auristatin antibody and peptide drug conjugates for trimodal cancer chemo-radio-immunotherapy” (Nature Communications, 2022).

What was measured:
[1] = Mouse body weight (safety of MMAE with IR, with or without anti-PD-1); conditions: ACPP-MMAE and IR
Excerpt: LL/2 cells treated with dose range of MMAE overnight and then […] in drug free media for 7-10 days to allow for visualized colonies to form.
Statistical significances calculated using one-way ANOVA with Tukey’s multiple comparisons test. 0.9 b) Cell cycle analysis […]
of MMAE treated LL/2 cells, mean ± SD, n=2. […]
experiments. c) Clonogenic survival of LL/2 cells treated with MMAE and 2 Gy (SF2). Cell Days viability normalized to non-irradiated cells for each drug condition and plotted as mean fractional survival ± SEM, n=6. Statistical significances calculated using one-way ANOVA with Sidak’s multiple comparisons test. d) Tumor volumes (n=10) and mouse body weights (n=5) of mice from experiments in Fig. 3e. Tumor volumes plotted as mean volume of surviving mice ± SEM.
Mouse body weight were normalized to each mouse’s weight on day 0, i.e. tumor implantation.
Data plotted as mean fractional body weight ± SEM. e) Mouse body weights of mice (n=5) from experiments in Fig. 4h were normalized to each mouse’s weight on day of tumor implantation.
Data is plotted as individual normalized body weights. f) Mouse body weights of mice from experiments in Fig. 5e, f were normalized to each mouse’s weight on day of tumor implantation.
(§1) Source data are provided in Source Data file.

[2] = tested on: MOC1, MOC2 and LL/2 tumors; conditions: immune-competent mice, not in HER3 negative LL/2 tumors
Description: (§2) All animal work was done in compliance with the University of California San Diego Institutional Animal Use and Care Committee under protocol #S15290. Mice were housed in individually ventilated and micro-isolator cages supplied with acidified water and fed 5053 irradiated PicoLab Rodent Diet 20. Temperature for laboratory mice in housing was 18–23 °C with humidity 40–60%. Housing room is maintained on a 12-h light/dark cycle. […] For imaging, mice were anesthetized (1:1 mixture of 100 mg/ml of ketamine and 5 mg/ml of midazolam). Animals were imaged using a Maestro Small Animal Imager (CRI) with excitation filter of 607/36 and 633 nm long pass emission filter with dichroic filter tuned to 670 nm for Cy5 images only. Imaging was done both with skin on and after skin removal to decrease autofluorescence and scattering. Exposure time for Cy5 signal capture for tumor models was as follows: CAL27 for 800 ms, MOC1 for 200 ms and MOC2 for 1500 ms.
as §1

[3] = tested on: CAL27 and Detroit 562 tumor xenografts; conditions: immune-deficient mice with HER3 expressing human tumor xenografts
Description: as §2, §1

[4] = Pilot dose studies of CDX3379-MMAE ADC (response to reviewers); assay type: in vivo
Description: compares to MMAE in immune-competent cancer models. We have now tested the hypothesis raised by the Reviewer head on and present new data (Fig. 3h). First, we successfully synthesized a CDX3379-MMAF ADC (Supplementary Figs. 2c & 2d). Then, we tested CDX3379-MMAE + IR to […] directly in B16 […]
these findings, we hypothesize that MMAE mediated bystander effects improve radiosensitized tumor control when compared to MMAF tumor cell radiosensitization and continue with MMAE as our lead radiosensitizing […]
Comment 2: “authors claim that in syngeneic model MMAE lacked therapeutic efficacy irrespective of the coupled tumor-directed delivery vehicle. However, comparison here is misleading, as they compare MMAE activity coupled to an antibody vs a penetrating peptide. Instead, in order to fully address the concept that auristatin MMAE has limited antitumor activity in a syngeneic model a more appropriate control should be used, that is a MMAE coupled to a different mAb targeting other antigen (receptor). In addition, this would reinforce the evidence about the potential of ADC therapy in combination with IR in immunocompetent mouse […]
Response: In principle, we agree with the sentiment raised by the Reviewer to have another ADC targeting a different cell surface receptor. […]

Substance	adverse effects on mouse well-being by body weight [1]	localization of i.v. injected Cy5-labeled ADC [2]	localization of i.v. injected Cy5-labeled ADC [3]	anti-tumor activity in pilot studies ([4]; 1 nmole CDX3379-MMAE)	anti-tumor activity in pilot studies ([4]; 5 nmoles CDX3379-MMAE)
cyclo(RGD)fc-MC-HN-peg8-e9-oPLGC(Me)AG-r9-c-(MC-VC-PABC-MMAE)-CONH2 [ACPP-MMAE]	no adverse effects				
CDX3379-MMAE: anti-HER3 antibody CDX3379 with 4 MMAE per antibody via MC-VC-PABC linker, labeled with Cy5		localized to HER3 expressing murine syngeneic tumors	localized to tumor bearing hindlimbs	ineffective	anti-tumor activity
